The target of the assay is Meiothermus taiwanensis LonA (Lon AAA+ protease), wild type, full length (Meiothermus taiwanensis). The assay is described as follows: cryo-EM structure.

“Meiothermus taiwanensis LonA (Lon AAA+ protease), wild type, full length (enzyme)” displayed a stoichiometry N of 6.

These data come from paper doi:10.1101/2020.04.29.068361.
